From PMC10598227, “Structural insights for selective disruption of Beclin 1 binding to Bcl-2” (Communications Biology, 2023)

Tests used:
Bcl-2(1-218) = target: T1, Bcl-2(1-218) (human, UniProt P10415 1-218); experiment: NMR titration; 1H-15N TROSY-HSQC spectra of 10-45 uM uniformly 15N-labelled Bcl-2 fragment without and with Beclin 1 BH3 peptide added from a d6-DMSO stock; 25 °C, 20 mM sodium phosphate pH 7.3, 1 mM TCEP, 7% D2O; conditions: both partners purified
T1 construct: Uniformly 15N-labelled for NMR. pSKB2 vector with HRV 3C cleavage site; also called cytoplasmic region of Bcl-2 (residues 1-218); Becl-2(1-218); source: E. coli BL21 (DE3), purified (Ni-NTA, His6-tag cleaved with 3C protease, Superdex 75); not shown: His6, N-terminal, cleaved

Bcl-2(1-206) = target: T2, Bcl-2(1-206) (human, UniProt P10415 1-206); experiment: as above; conditions: both partners purified
T2 construct: vector analogous to that of human Bcl-2(1-218), isoform alpha; Uniformly 15N-labelled for NMR; Vector was a gift from Beth Levine, called analogous to the pSKB2 vector of Bcl-2(1-218); also called Bcl-2 fragment lacking the juxtamembrane region; Bcl-2(1-2-6); source: E. coli BL21 (DE3), purified (Ni-NTA, His6-tag cleaved with 3C protease, Superdex 75); not shown: His6, N-terminal, cleaved
T2 sequence (P10415 1-206): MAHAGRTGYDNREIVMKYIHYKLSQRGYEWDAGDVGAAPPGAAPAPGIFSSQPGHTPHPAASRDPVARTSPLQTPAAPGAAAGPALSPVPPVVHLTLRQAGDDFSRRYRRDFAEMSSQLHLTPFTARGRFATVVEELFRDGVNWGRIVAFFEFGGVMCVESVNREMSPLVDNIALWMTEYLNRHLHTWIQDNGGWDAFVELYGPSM

T1 sequence (P10415 1-218): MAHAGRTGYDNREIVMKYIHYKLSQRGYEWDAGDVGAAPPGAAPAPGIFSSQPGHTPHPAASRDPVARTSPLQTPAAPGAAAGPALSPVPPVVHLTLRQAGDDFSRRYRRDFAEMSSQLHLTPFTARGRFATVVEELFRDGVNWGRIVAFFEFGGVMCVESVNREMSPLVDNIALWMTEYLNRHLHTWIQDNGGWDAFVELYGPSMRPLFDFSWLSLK

B1: Beclin 1 BH3 peptide (peptide)
peptide: DGGTMENLSRRLKVTGDLFDIMSGQT
notes: Beclin 1, human, residues 105-130 (BH3 domain); L-amino acid peptide, dissolved in d6-dimethylsulfoxide; also called Beclin 1 BH3 domain; source: synthetic peptide (Protein Chemistry Technology Core, UT Southwestern), HPLC purified
B1: binds (Bcl-2(1-218)); binds (Bcl-2(1-206)).
